# IntAct's records for PubMed 29892012
# B1: BRCA1-A complex subunit RAP80 (Homo sapiens), Q96RL1 (parent)
# chain: MPRRKKKVKEVSESRNLEKKDVETTSSVSVKRKRRLEDAFIVISDSDGEEPKEENGLQKTKTKQSNRAKCLAKRKIAQMTEEEQFALALKMSEQEAREVNSQEEEEEELLRKAIAESLNSCRPSDASATRSRPLATGPSSQSHQEKTTDSGLTEGIWQLVPPSLFKGSHISQGNEAEEREEPWDHTEKTEEEPVSGSSGSWDQSSQPVFENVNVKSFDRCTGHSAEHTQCGKPQESTGRGSAFLKAVQGSGDTSRHCLPTLADAKGLQDTGGTVNYFWGIPFCPDGVDPNQYTKVILCQLEVYQKSLKMAQRQLLNKKGFGEPVLPRPPSLIQNECGQGEQASEKNECISEDMGDEDKEERQESRASDWHSKTKDFQESSIKSLKEKLLLEEEPTTSHGQSSQGIVEETSEEGNSVPASQSVAALTSKRSLVLMPESSAEEITVCPETQLSSSETFDLEREVSPGSRDILDGVRIIMADKEVGNKEDAEKEVAISTFSSSNQVSCPLCDQCFPPTKIERHAMYCNGLMEEDTVLTRRQKEAKTKSDSGTAAQTSLDIDKNEKCYLCKSLVPFREYQCHVDSCLQLAKADQGDGPEGSGRACSTVEGKWQQRLKNPKEKGHSEGRLLSFLEQSEHKTSDADIKSSETGAFRVPSPGMEEAGCSREMQSSFTRRDLNESPVKSFVSISEATDCLVDFKKQVTVQPGSRTRTKAGRGRRRKF
# partner: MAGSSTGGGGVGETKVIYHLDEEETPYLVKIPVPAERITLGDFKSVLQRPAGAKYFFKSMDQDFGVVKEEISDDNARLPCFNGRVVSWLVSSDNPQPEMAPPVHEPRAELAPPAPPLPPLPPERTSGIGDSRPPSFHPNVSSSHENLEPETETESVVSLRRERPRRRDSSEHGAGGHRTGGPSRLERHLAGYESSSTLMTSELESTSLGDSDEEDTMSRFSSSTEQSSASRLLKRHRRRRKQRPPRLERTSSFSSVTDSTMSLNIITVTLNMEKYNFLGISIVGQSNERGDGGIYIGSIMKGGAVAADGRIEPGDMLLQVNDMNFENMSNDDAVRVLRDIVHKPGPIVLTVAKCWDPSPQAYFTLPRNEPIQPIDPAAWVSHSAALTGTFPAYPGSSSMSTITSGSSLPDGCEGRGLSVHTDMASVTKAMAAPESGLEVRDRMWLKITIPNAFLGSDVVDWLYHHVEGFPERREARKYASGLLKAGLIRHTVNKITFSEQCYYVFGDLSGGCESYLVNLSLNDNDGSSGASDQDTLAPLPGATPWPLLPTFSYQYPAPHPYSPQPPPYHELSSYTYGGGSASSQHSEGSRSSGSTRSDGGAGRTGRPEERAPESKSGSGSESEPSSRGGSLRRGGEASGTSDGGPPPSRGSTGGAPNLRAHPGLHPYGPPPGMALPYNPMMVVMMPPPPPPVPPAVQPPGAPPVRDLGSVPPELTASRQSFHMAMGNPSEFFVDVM
# B2: E3 ubiquitin-protein ligase LNX (Homo sapiens), Q8TBB1 (parent)
# chain: MNQPESANDPEPLCAVCGQAHSLEENHFYSYPEEVDDDLICHICLQALLDPLDTPCGHTYCTLCLTNFLVEKDFCPMDRKPLVLQHCKKSSILVNKLLNKLLVTCPFREHCTQVLQRCDLEHHFQTSCKGASHYGLTKDRKRRSQDGCPDGCASLTATAPSPEVSAAATISLMTDEPGLDNPAYVSSAEDGQPAISPVDSGRSNRTRARPFERSTIRSRSFKKINRALSVLRRTKSGSAVANHADQGRENSENTTAPEVFPRLYHLIPDGEITSIKINRVDPSESLSIRLVGGSETPLVHIIIQHIYRDGVIARDGRLLPGDIILKVNGMDISNVPHNYAVRLLRQPCQVLWLTVMREQKFRSRNNGQAPDAYRPRDDSFHVILNKSSPEEQLGIKLVRKVDEPGVFIFNVLDGGVAYRHGQLEENDRVLAINGHDLRYGSPESAAHLIQASERRVHLVVSRQVRQRSPDIFQEAGWNSNGSWSPGPGERSNTPKPLHPTITCHEKVVNIQKDPGESLGMTVAGGASHREWDLPIYVISVEPGGVISRDGRIKTGDILLNVDGVELTEVSRSEAVALLKRTSSSIVLKALEVKEYEPQEDCSSPAALDSNHNMAPPSDWSPSWVMWLELPRCLYNCKDIVLRRNTAGSLGFCIVGGYEEYNGNKPFFIKSIVEGTPAYNDGRIRCGDILLAVNGRSTSGMIHACLARLLKELKGRITLTIVSWPGTFL
# partner: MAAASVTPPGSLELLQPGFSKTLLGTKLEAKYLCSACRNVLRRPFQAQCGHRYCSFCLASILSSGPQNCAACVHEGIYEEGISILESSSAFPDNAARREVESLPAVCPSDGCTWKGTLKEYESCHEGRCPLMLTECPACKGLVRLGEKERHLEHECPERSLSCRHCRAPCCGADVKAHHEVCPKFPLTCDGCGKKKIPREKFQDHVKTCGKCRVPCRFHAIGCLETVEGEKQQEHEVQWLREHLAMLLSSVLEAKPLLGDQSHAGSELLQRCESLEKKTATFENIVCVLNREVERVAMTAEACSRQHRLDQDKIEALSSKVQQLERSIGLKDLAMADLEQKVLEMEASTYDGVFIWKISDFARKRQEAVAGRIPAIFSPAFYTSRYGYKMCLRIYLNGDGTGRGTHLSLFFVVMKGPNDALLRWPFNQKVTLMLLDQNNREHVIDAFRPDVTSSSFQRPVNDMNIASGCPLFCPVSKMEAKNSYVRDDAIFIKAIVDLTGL
# B3: E3 ubiquitin-protein ligase LNX (Homo sapiens), Q8TBB1 (parent)
# chain: B2 chain
# partner: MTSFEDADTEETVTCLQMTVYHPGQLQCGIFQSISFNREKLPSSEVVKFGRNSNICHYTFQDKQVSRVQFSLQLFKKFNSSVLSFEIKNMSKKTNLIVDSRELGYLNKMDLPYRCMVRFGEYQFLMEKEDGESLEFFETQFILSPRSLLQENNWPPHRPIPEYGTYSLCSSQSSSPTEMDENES
# Variants of: B1
# Settings: with dvl2_human DVL2, O14641
row,Variant,effect of a mutation on the interaction
1,Q631E,with no effect

# Variants of: B1
# Settings: with dvl2_human DVL2, O14641
# Remark: another data set of the same source
row,Variant,effect of a mutation on the interaction
1,R34H,disrupting interaction strength

# Variants of: B2
# Settings: with traf2_human TRAF2, Q12933
row,Variant,effect of a mutation on the interaction
1,E295K,disrupting interaction strength

# Variants of: B3
# Settings: with tifa_human TIFA
row,Variant,effect of a mutation on the interaction
1,E295K,disrupting interaction strength
